Numbering of substitutions follows the chain as printed. In names and notes the source's numbering stands.

Series [1] can be described thus: Heat resistance of LATM2 by SDS-PAGE. The following applies: absence of biotin, 20 min in SDS sample buffer. It is filed as physicochemical. How it is done: The heat resistance of LATM2s was investigated by SDS-PAGE. Each protein was heat treated at predetermined temperatures for 20 min in an SDS sample buffer in the presence or absence of biotin and was then subjected to SDS-PAGE, followed by CBB staining. The heating temperatures in a biotin-free experimental system were 80° C., 82° C., 84° C., 86° C., 88° C., 90° C., 92° C., and 94° C., and heating temperatures in a biotin-containing experimental system were 86° C., 88° C., 90° C., 92° C., 96° C., 98° C., and 100° C.

Series [2] is described as follows: Purification of LATM2 with biotin-agarose. Format: binding.
The nature of series [3]: Purification of LATM2 with 2-iminobiotin-agarose. It is filed as binding. The following applies: Iminobiotin-agarose; binding at pH 12, elution with 50 mM NH4OAC (pH 4).
Series [4] is described as follows: Subunit association by FPLC on Sephacryl S-100HR. It is filed as physicochemical.
Series [5] deals with Proteinase K. The experiment in a line: Protease resistance of LATM2 (SDS-PAGE). The following applies: 5 μM Proteinase K, 30° C., 15 min, presence or absence of biotin. How it is done: Throughout the specification, “having protease resistance” refers to that a protein is not enzymatically decomposed or not substantially decomposed by protease treatment. The protease treatment is performed by, for example, proteinase K treatment at 30° C. for 15 min. The term “not enzymatically decomposed” refers to that bands of a tetramer, dimer, and/or monomer of the protein can be clearly detected by SDS-PAGE after enzyme treatment, as in wild-type TM2. That is, a protein not having protease resistance is decomposed into small molecules by protease treatment, and bands of the tetramer, dimer, and monomer are not detected by SDS-PAGE after the protease treatment. […] Accordingly, bands of the tetramer and/or the dimer or monomer generated by dissociation of the tetramer are detected by SDS-PAGE. […] of each of the LATM2s (TM2 S36A, TM2 […], TM2 […], TM2 […], TM2 […], TM2 S36A-[…], TM2 […], and […]) purified by biotin-agarose was subjected to a reaction in 50 mM Tris-HCl (pH 8.0) containing 5 μM Proteinase K and 5 mM CaCl2 at 30° C. for 15 min. […] Then, an SDS buffer was added to each reaction solution, followed by heat treatment at 95° C. for 10 min to terminate the reaction. The resulting sample was subjected to SDS-PAGE, followed by CBB staining.

Series [6] is described as follows: Biotin-binding ability of TM2 D40N.

B1: WT-TM2: wild-type tamavidin 2, protein comprising the amino acid sequence SEQ ID NO: 2, from Pleurotus cornucopiae (protein, listed as Pleurotus cornucopiae)
chain: MSDVQSSLTGTWYNELNSKMELTANKDGTLTGKYLSKVGDVYVPYPLSGRYNLQPPAGQGVALGWAVSWENSKIHSATTWSGQFFSESSPVILTQWLLSSSTARGDVWESTLVGNDSFTKTAPTEQQIAHAQLHCRAPRLK
Turning to B1, in series [1], the “Tr value (temperature at which ratio monomer:tetramer becomes 1:1)” value is 78 °C. In addition, in series [2], the binding to biotin-agarose entry was “efficiently adsorbs to biotin-agarose” and the “elution from biotin-agarose with an excess amount of biotin” value is “not eluted”. Moreover, in series [2] (Biotin-agarose, binding at pH 7, recovery with 10 mM biotin), the “Recover rate (%)” value was 0%. Moreover, in series [2] (binding at pH 7, recovery with 10 mM biotin, FT = flow-through), the “Note (Biotin-agarose)” value is “not eluted”. The “Recovery rate (%)” value in series [3] is given as 95%. Also, in series [4] (Sephacryl S-100HR, 50 mM potassium phosphate, 500 mM NaCl), the “Structure (identified by FPLC)” value was “Tetramer”. In addition, in series [4] (tetramer 44 to 47 mL, dimer 51 to 54 mL, monomer 63 to 66 mL), the “Sephacryl (mL), elution peak position” value amounted to 46.23 mL. Moreover, the “decomposition by Proteinase K” value in series [5] is listed as “hardly decomposed”.

B2: TM2 D40N: TM2 having modification of the 40th aspartic acid to asparagine (protein)
chain: B1 chain with D40N
Take B2: the “biotin-binding ability relative to TM2” value in series [6] is on record as “increases”.

Source of the values: patent US9611303B2, “Modified biotin-binding protein” (Japan Tobacco Inc., priority 2009, dated 2017).
